Test results reported in paper PMC7797033, “Single-molecule visualization of human RECQ5 interactions with single-stranded DNA recombination intermediates”.
Each block holds one molecule with its values, some of them ahead of it.

Tests used:
[1] = target: Human wild-type (wt) RAD51 (human) (UniProt Q06609)
RAD51 = RAD51 (human, UniProt Q06609 1-339); test: BLI; 2 mM ATP, 2 mM Mg2+; 2 uM RAD51; BLI: 25 mM Tris-HCl pH 7.5, 50 mM KCl, 2 mM MgCl2, 200 ug/mL BSA, 0.05% Tween 20, 2 mM ATP, room temperature; curtain buffer not in the material; conditions: protein: recombinant; tags: none stated for BLI prep; chain copies: 10; label: 5' biotin
RAD51, sequence (Q06609 whole entry): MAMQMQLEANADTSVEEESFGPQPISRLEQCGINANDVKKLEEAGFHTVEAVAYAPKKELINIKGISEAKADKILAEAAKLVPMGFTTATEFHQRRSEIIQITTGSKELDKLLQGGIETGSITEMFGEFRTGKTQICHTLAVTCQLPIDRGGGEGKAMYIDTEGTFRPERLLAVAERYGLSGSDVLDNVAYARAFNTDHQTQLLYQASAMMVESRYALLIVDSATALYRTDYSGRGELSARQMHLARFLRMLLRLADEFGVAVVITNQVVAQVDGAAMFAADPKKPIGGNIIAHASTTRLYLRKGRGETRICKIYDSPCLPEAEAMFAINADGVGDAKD

Human wild-type (wt) RAD51 (human), sequence (Q06609 whole entry): as above

processivity of unlabeled RECQ5–F666A on RAD51–ssDNA (ssDNA curtains) [1]: 5200 nt
translocation velocity of unlabeled RECQ5–F666A on RAD51–ssDNA (ssDNA curtains) [1]: 28 nt/s
Molecule: RECQ5–F666A (from UniProt O94762 1-991) (enzyme)

B1: dT43-mer (ssDNA)
DNA: TTTTTTTTTTTTTTTTTTTTTTTTTTTTTTTTTTTTTTTTTTT
binding result (RAD51): binds
